Numbering of substitutions follows the chain as printed.
B1: PGT-135 (antibody, V domains shown)
VH: QLQMQESGPGLVKPSETLSLSCTVSGDSIRGGEWGDKDYHWGWVRHSAGKGLEWIGSIHWRGTTHYKESLRRRVSMSIDTSRNWFSLRLASVTAADTAVYFCARHRHHDVFMLVPIAGWFDVWGPGVQVTVSS
VL: EIVMTQSPDTLSVSPGETVTLSCRASQNINKNLAWYQYKPGQSPRLVIFETYSKIAAFPARFVASGSGTEFTLTINNMQSEDVAVYYCQQYEEWPRTFGQGTKVDIK
B2: PGT-126 (antibody, V domains shown)
VH: QPQLQESGPGLVEASETLSLTCTVSGDSTAACDYFWGWVRQPPGKGLEWIGGLSHCAGYYNTGWTYHNPSLKSRLTISLDTPKNQVFLKLNSVTAADTAIYYCARFDGEVLVYHDWPKPAWVDLWGRGTLVTVSS
VL: QSALTQPPSASGSPGQSISISCTGTSNRFVSWYQQHPGKAPKLVIYGVNKRPSGVPDRFSGSKSGNTASLTVSGLQTDDEAVYYCSSLVGNWDVIFGGGTKLTVL
B3: PGT-127 (antibody, V domains shown)
VH: QPQLQESGPGLVEASETLSLTCTVSGDSTGRCNYFWGWVRQPPGKGLEWIGSLSHCRSYYNTDWTYHNPSLKSRLTISLDTPKNQVFLRLTSVTAADTATYYCARFGGEVLVYRDWPKPAWVDLWGRGTLVVTVS
VL: B2 VL with S19T, R28N, H36Y, G47E, N66S, T77A, A81G
B4: PGT-128 (antibody, V domains shown)
VH: QPQLQESGPTLVEASETLSLTCAVSGDSTAACNSFWGWVRQPPGKGLEWVGSLSHCASYWNRGWTYHNPSLKSRLTLALDTPKNLVFLKLNSVTAADTATYYCARFGGEVLRYTDWPKPAWVDLWGRGTLVTVSS
VL: B2 VL with S19T, R28N, P37A, G47D, S86G
B5: PGT-125 (antibody, V domains shown)
VH: QSQLQESGPRLVEASETLSLTCNVSGESTGACTYFWGWVRQAPGKGLEWIGSLSHCQSFWGSGWTFHNPSLKSRLTISLDTPKNQVFLKLTSLTAADTATYYCARFDGEVLVYNHWPKPAWVDLWGRGIPVTVSS
VL: QSALTQPPSASGSPGQSITISCNGTATNFVSWYQQFPDKAPKLIIFGVDKRPPGVPDRFSGSRSGTTASLTVSRLQTDDEAVYYCGSLVGNWDVIFGGGTTLTVL

Key:
[1] = target: JR-FL gp120 ΔV3 (HIV-1 (isolate JR-FL)); assay: ELISA on coated gp120; EC50 by nonlinear regression
[2] = target: HIV-1 94UG103 envelope glycoprotein (Env) (HIV-1); assay: cell-based or functional assay
[3] = target: HIV-1 MGRM-C-028 envelope glycoprotein (Env) (HIV-1); assay: cell-based or functional assay
[4] = target: HIV-1 JRCSF envelope glycoprotein (Env) (HIV-1) (UniProt P20871); assay: cell-based or functional assay
[5] = target: HIV-1 92RW020 envelope glycoprotein (Env) (HIV-1); assay: cell-based or functional assay
[6] = target: HIV-1 JR-CSF Env G324A (HIV-1 isolate JR-CSF) (UniProt P20871); assay: cell-based or functional assay
[7] = target: HIV-1 93IN905 envelope glycoprotein (Env) (HIV-1); assay: cell-based or functional assay
[8] = target: HIV-1 Env of isolate 93IN905 (HIV-1); assay: cell-based or functional assay
[9] = target: HIV-1 APV13 envelope glycoprotein (Env) (HIV-1); assay: cell-based or functional assay
[10] = target: HIV-1 MGRM-C-026 envelope glycoprotein (Env) (HIV-1); assay: cell-based or functional assay
[11] = target: HIV-1 93UG077 envelope glycoprotein (Env) (HIV-1); assay: cell-based or functional assay
[12] = target: HIV-1 NL43 envelope glycoprotein (Env) (HIV-1); assay: cell-based or functional assay
[13] = target: HIV-1 Env of isolate MGRM-A-004 (HIV-1); assay: cell-based or functional assay
[14] = target: HIV-1 Env of isolate 92UG037 (HIV-1); assay: cell-based or functional assay
[15] = target: Env of the clade AE HIV-1 pseudoviruses of the cross-clade 162-pseudovirus panel (n = 10); assay: cell-based or functional assay
[16] = target: HIV-1 Env of isolate MGRM-A-012 (HIV-1); assay: cell-based or functional assay
[17] = target: HIV-1 Env of isolate VLGCA1 (HIV-1); assay: cell-based or functional assay
[18] = target: HIV-1 Env of isolate MGRM-A-014 (HIV-1); assay: cell-based or functional assay
[19] = target: HIV-1 Env of isolate 93UG077 (HIV-1); assay: cell-based or functional assay
[20] = target: HIV-1 Env of isolate 94UG103 (HIV-1); assay: cell-based or functional assay
[21] = target: HIV-1 Env of isolate MGRM-AE-002 (HIV-1); assay: cell-based or functional assay
[22] = target: HIV-1 Env of isolate MGRM-A-008 (HIV-1); assay: cell-based or functional assay
[23] = target: HIV-1 Env of isolate 92WR020 (HIV-1); assay: cell-based or functional assay
[24] = target: HIV-1 Env of isolate MGRM-AE-001 (HIV-1); assay: cell-based or functional assay
[25] = target: HIV-1 Env of isolate 92WR009 (HIV-1); assay: cell-based or functional assay
[26] = target: HIV-1 Env of isolate MGRM-A-001 (HIV-1); assay: cell-based or functional assay
[27] = target: HIV-1 Env of isolate MGRM-A-010 (HIV-1); assay: cell-based or functional assay
[28] = target: HIV-1 Env of isolate 92WR026 (HIV-1); assay: cell-based or functional assay
[29] = target: HIV-1 Env of isolate MGRM-A-002 (HIV-1); assay: cell-based or functional assay
[30] = target: HIV-1 Env of isolate MGRM-A-009 (HIV-1); assay: cell-based or functional assay
[31] = target: HIV-1 Env of isolate MGRM-A-013 (HIV-1); assay: cell-based or functional assay
[32] = target: HIV-1 Env of isolate 92RW008 (HIV-1); assay: cell-based or functional assay
[33] = target: HIV-1 Env of isolate 92WR024 (HIV-1); assay: cell-based or functional assay
[34] = target: HIV-1 Env of isolate 93WR029 (HIV-1); assay: cell-based or functional assay
[35] = target: HIV-1 Env of isolate 92WR021 (HIV-1); assay: cell-based or functional assay
[36] = target: HIV-1 Env of isolate CMU02 (HIV-1); assay: cell-based or functional assay
[37] = target: HIV-1 Env of isolate MGRM-A-003 (HIV-1); assay: cell-based or functional assay
[38] = target: HIV-1 Env of isolate MGRM-A-011 (HIV-1); assay: cell-based or functional assay
[39] = target: HIV-1 Env of isolate MGRM-A-007 (HIV-1); assay: cell-based or functional assay

Binder	IC50 neutralization [2] [µg/mL]	IC50 neutralization [3] [µg/mL]	IC50 neutralization [4] [µg/mL]	IC50 neutralization [5] [µg/mL]	Fold IC50 increase relative to wild-type [6] [fold]	IC50 neutralization [7] [µg/mL]	IC50 neutralization [9] [µg/mL]	IC50 neutralization [10] [µg/mL]	IC50 neutralization [11] [µg/mL]	IC50 neutralization [12] [µg/mL]	IC50 (µg/mL), pseudovirus neutralization [13] [µg/mL]	IC50 (µg/mL), pseudovirus neutralization [14] [µg/mL]	Median IC50 against viruses neutralized with an IC50 <50 µg/ml [15] [µg/mL]	IC50 (µg/mL), pseudovirus neutralization [16] [µg/mL]	IC50 (µg/mL), pseudovirus neutralization [17] [µg/mL]	IC50 (µg/mL), pseudovirus neutralization [18] [µg/mL]	IC50 (µg/mL), pseudovirus neutralization [19] [µg/mL]	IC50 (µg/mL), pseudovirus neutralization [20] [µg/mL]	IC50 (µg/mL), pseudovirus neutralization [21] [µg/mL]	IC50 (µg/mL), pseudovirus neutralization [22] [µg/mL]	further results
B1	> 10	2.16	0.113	0.157	0.4	0.0183	0.545	0.0123	> 10	6.79											EC50 [1]: 0.2 µg/mL; Primary Neutralization Index (B cell culture well 5343 B8) [8]: 43; Primary Neutralization Index (B cell culture well 5344 E16) [8]: 2.3
B2	0.0091	0.283	0.0061	0.0046	3.3	0.0194	0.012	0.0076	0.0256	> 10	> 50	0.011	1.77	0.097	> 50	0.01	0.02	0.008	> 50	> 50	IC50 (µg/mL), pseudovirus neutralization [23]: 0.006 µg/mL; IC50 (µg/mL), pseudovirus neutralization [24]: 9.68 µg/mL; IC50 (µg/mL), pseudovirus neutralization [25]: > 50 µg/mL; IC50 (µg/mL), pseudovirus neutralization [26]: > 50 µg/mL; IC50 (µg/mL), pseudovirus neutralization [27]: 0.002 µg/mL; IC50 (µg/mL), pseudovirus neutralization [28]: 0.008 µg/mL; IC50 (µg/mL), pseudovirus neutralization [29]: 0.015 µg/mL; IC50 (µg/mL), pseudovirus neutralization [30]: 0.004 µg/mL; IC50 (µg/mL), pseudovirus neutralization [31]: 0.006 µg/mL; IC50 (µg/mL), pseudovirus neutralization [32]: 0.008 µg/mL; IC50 (µg/mL), pseudovirus neutralization [33]: 42 µg/mL; IC50 (µg/mL), pseudovirus neutralization [34]: > 50 µg/mL; IC50 (µg/mL), pseudovirus neutralization [35]: 0.006 µg/mL; IC50 (µg/mL), pseudovirus neutralization [36]: > 50 µg/mL; IC50 (µg/mL), pseudovirus neutralization [37]: > 50 µg/mL; IC50 (µg/mL), pseudovirus neutralization [38]: > 50 µg/mL; IC50 (µg/mL), pseudovirus neutralization [39]: > 50 µg/mL
B3											> 50	0.014		0.105	> 50	0.04	0.055	0.017	> 50	> 50	IC50 (µg/mL), pseudovirus neutralization [23]: 0.01 µg/mL; IC50 (µg/mL), pseudovirus neutralization [24]: > 50 µg/mL; IC50 (µg/mL), pseudovirus neutralization [25]: > 50 µg/mL; IC50 (µg/mL), pseudovirus neutralization [26]: > 50 µg/mL; IC50 (µg/mL), pseudovirus neutralization [27]: 0.017 µg/mL; IC50 (µg/mL), pseudovirus neutralization [28]: 0.024 µg/mL; IC50 (µg/mL), pseudovirus neutralization [29]: 9.42 µg/mL; IC50 (µg/mL), pseudovirus neutralization [30]: 0.013 µg/mL; IC50 (µg/mL), pseudovirus neutralization [31]: 0.029 µg/mL; IC50 (µg/mL), pseudovirus neutralization [32]: 0.012 µg/mL; IC50 (µg/mL), pseudovirus neutralization [33]: > 50 µg/mL; IC50 (µg/mL), pseudovirus neutralization [34]: > 50 µg/mL; IC50 (µg/mL), pseudovirus neutralization [35]: 0.011 µg/mL; IC50 (µg/mL), pseudovirus neutralization [36]: > 50 µg/mL; IC50 (µg/mL), pseudovirus neutralization [37]: > 50 µg/mL; IC50 (µg/mL), pseudovirus neutralization [38]: > 50 µg/mL; IC50 (µg/mL), pseudovirus neutralization [39]: > 50 µg/mL
B4													0.05								EC50 [1]: 7.8 µg/mL
B5	0.0124	5.78	0.006	0.0028	1.7	0.0137	0.0128	0.0106	0.0262	> 10	> 50	0.005	0.03	0.177	0.078	13.9	0.012	0.008	> 50	> 50	IC50 (µg/mL), pseudovirus neutralization [23]: 0.004 µg/mL; IC50 (µg/mL), pseudovirus neutralization [24]: 2.95 µg/mL; IC50 (µg/mL), pseudovirus neutralization [25]: 0.144 µg/mL; IC50 (µg/mL), pseudovirus neutralization [26]: 12.4 µg/mL; IC50 (µg/mL), pseudovirus neutralization [27]: 0.004 µg/mL; IC50 (µg/mL), pseudovirus neutralization [28]: 0.007 µg/mL; IC50 (µg/mL), pseudovirus neutralization [29]: 0.013 µg/mL; IC50 (µg/mL), pseudovirus neutralization [30]: 0.009 µg/mL; IC50 (µg/mL), pseudovirus neutralization [31]: 0.014 µg/mL; IC50 (µg/mL), pseudovirus neutralization [32]: 0.004 µg/mL; IC50 (µg/mL), pseudovirus neutralization [33]: 35.5 µg/mL; IC50 (µg/mL), pseudovirus neutralization [34]: > 50 µg/mL; IC50 (µg/mL), pseudovirus neutralization [35]: 0.005 µg/mL; IC50 (µg/mL), pseudovirus neutralization [36]: > 50 µg/mL; IC50 (µg/mL), pseudovirus neutralization [37]: > 50 µg/mL; IC50 (µg/mL), pseudovirus neutralization [38]: > 50 µg/mL; IC50 (µg/mL), pseudovirus neutralization [39]: > 50 µg/mL

Reference: patent US20200024330A1
